Reference: the supplement of paper PMC7877785
± gives the uncertainty stated by the source.

Assay: self-splicing fitness, log relative to wild type (ln ratio); higher = more splicing; Tetrahymena group I intron in knt gene, E. coli kanamycin selection, DiMSum; sequences stand for … in CUCUCU…GGAGGGAAAAGUUAUCAGGCAUGCACCUGGUAGCUAGUCUUUAAACCAAUAGAUUGCAUCGGUUUAAAAGGCAAGACCGUCAAAUUGCGGGAAAGGGGUCAACAGCCGUUCAGUACCAAGUCUCAGGGGAAACUUUGAGAUGGCCUUGCAAAGGGUAUGGUAAUAAGCUGACGGACAUGGUCCUAACCACGCAGCCAAGUCCUAAGUCAACAGAUCUUCUGUUGAUAUGGAUGCAGUUCACAGACUAAAUGUCGGUCGGGGAAGAUGUAUUCUUCUCAUAAGAUAUAGUCGGACCUCUCCUUAAUGGGAGCUAGCGGAUGAAGUGAUGCAACACUGGAGCCGCUGGGAACUAAUUUGUAUGCGAAAGUAUAUUGAUUAGUUUUGGAGUACUCGUGGUCG
Outline: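 Six replicate transformations of E. coli BL21(DE3) with a pET-22b(+) library were grown overnight at 37°C or 30°C. The library randomised all eight P1ex-region intron nucleotides, the intron lying in the knt kanamycin-resistance gene, and plates were LB agar with or without 25 μg/mL kanamycin plus 100 μg/mL carbenicillin, 50 μM IPTG and 0.2% rhamnose. Pooled colonies were amplicon-sequenced on an Illumina HiSeq 2500, and fitness is the DiMSum error-weighted combination of wild-type-normalised replicate fold changes, kanamycin versus none.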

Row | Sequence | self-splicing fitness (ln) (30 °C) | self-splicing fitness (ln) (37 °C)
1 | UCCUAGCAAUAUUACGCUGU | -2.52 ± 0.22 | -2.23 ± 0.27
2 | AAAUAGCAAUAUUACGAUCA | -0.673 ± 0.095 | 0.0414 ± 0.089
3 | AGCAAGCAAUAUUACGUGUC | -3.85 ± 0.23 | -2.44 ± 0.17
4 | UGUAAGCAAUAUUACGUAAU | -2.84 ± 0.095 | -1.33 ± 0.12
5 | GGAUAGCAAUAUUACGCACG | -1.12 ± 0.16 | -0.963 ± 0.15
6 | GGCGAGCAAUAUUACGUCCA | -1.97 ± 0.14 | -1.02 ± 0.12
7 | UACUAGCAAUAUUACGGAGA | -2.59 ± 0.17 | -1.84 ± 0.16
8 | GCAUAGCAAUAUUACGGUGG | -2.55 ± 0.15 | -1.31 ± 0.13
9 | UUCGAGCAAUAUUACGCGUA | -1.94 ± 0.14 | -1.51 ± 0.12
10 | CUAGAGCAAUAUUACGAGUA | -3.71 ± 0.23 | -1.17 ± 0.17
11 | UGCCAGCAAUAUUACGUCGA | -1.17 ± 0.088 | -0.949 ± 0.11
12 | GAUUAGCAAUAUUACGUCUG | -2.47 ± 0.23 | -1.19 ± 0.16
13 | AUUGAGCAAUAUUACGUAAU | -1.68 ± 0.13 | -0.364 ± 0.19
14 | GUAGAGCAAUAUUACGGACC | -1.22 ± 0.14 | 0.305 ± 0.2
15 | GGACAGCAAUAUUACGGGAU | -2.05 ± 0.087 | -0.814 ± 0.1
16 | ACGAAGCAAUAUUACGGCAG | -2.17 ± 0.13 | -1.58 ± 0.14
17 | GCCUAGCAAUAUUACGUUUA | -2.34 ± 0.18 | -1.7 ± 0.14
18 | AGACAGCAAUAUUACGUGGC | -3.01 ± 0.19 | -2.12 ± 0.22
19 | CCUCAGCAAUAUUACGCGUG | -1.85 ± 0.081 | -0.545 ± 0.072
20 | GCGUAGCAAUAUUACGCUAU | -4.42 ± 0.42 | -2.46 ± 0.45
21 | AUCAAGCAAUAUUACGCCGA | -1.02 ± 0.14 | -0.375 ± 0.17
22 | UUGCAGCAAUAUUACGCAUA | -1.6 ± 0.13 | -0.643 ± 0.12
23 | ACUCAGCAAUAUUACGCUUA | -1.14 ± 0.14 | -0.0124 ± 0.12
24 | CUGCAGCAAUAUUACGAAUA | -1.74 ± 0.45 | -1.3 ± 0.2

Row | Sequence | self-splicing fitness (ln) (30 °C) | self-splicing fitness (ln) (37 °C)
25 | UUCGAGCAAUAUUACGCGUU | -1.87 ± 0.22 | -1.88 ± 0.27
26 | UUACAGCAAUAUUACGUUCA | -0.535 ± 0.11 | 0.086 ± 0.12
27 | CAGUAGCAAUAUUACGGAGA | -2.32 ± 0.24 | –
28 | GGCCAGCAAUAUUACGUCAU | -1.7 ± 0.063 | -1.27 ± 0.08
29 | ACCGAGCAAUAUUACGACCU | -1.75 ± 0.11 | -0.53 ± 0.12
30 | AUCCAGCAAUAUUACGCUAU | -1.51 ± 0.09 | -1.26 ± 0.1
31 | UCAUAGCAAUAUUACGGCAA | -2.25 ± 0.13 | -1.14 ± 0.1
32 | GCCAAGCAAUAUUACGCGAU | -3.73 ± 0.14 | -2.64 ± 0.18
33 | UUAAAGCAAUAUUACGACAC | -1.54 ± 0.18 | -0.0824 ± 0.22
34 | GAUCAGCAAUAUUACGUCAA | -1.01 ± 0.1 | -0.615 ± 0.14
35 | UAGUAGCAAUAUUACGUUAG | -1.52 ± 0.17 | -1.97 ± 0.21
36 | ACCUAGCAAUAUUACGGAGA | -1.83 ± 0.17 | -2.45 ± 0.2
37 | CACAAGCAAUAUUACGGCGG | -0.406 ± 0.042 | -0.181 ± 0.052
38 | CACUAGCAAUAUUACGUGUA | -2 ± 0.11 | -1.47 ± 0.12
39 | GCAUAGCAAUAUUACGCCUU | – | -1.42 ± 0.21
40 | UAUGAGCAAUAUUACGAAUU | -2.36 ± 0.33 | -1.73 ± 0.32
41 | AGCAAGCAAUAUUACGUGUG | -2.9 ± 0.1 | -1.17 ± 0.081
42 | GGCAAGCAAUAUUACGGUAA | -1.28 ± 0.097 | 0.108 ± 0.094
43 | CCGUAGCAAUAUUACGCCAG | -1.17 ± 0.16 | -0.533 ± 0.22
44 | UGCAAGCAAUAUUACGCGGC | -2.85 ± 0.17 | -2.3 ± 0.2
45 | GACGAGCAAUAUUACGGGGA | -3.12 ± 0.22 | -2.37 ± 0.29
46 | CCAUAGCAAUAUUACGAAAG | -2.11 ± 0.12 | -0.18 ± 0.12
47 | GCCUAGCAAUAUUACGCCUU | -1.15 ± 0.086 | -0.212 ± 0.1
48 | UUUAAGCAAUAUUACGACCC | -1.3 ± 0.31 | 0.0123 ± 0.28
